# B1: Caspase recruitment domain-containing protein 9 (Homo sapiens), Q9H257 (parent)
# chain: MSDYENDDECWSVLEGFRVTLTSVIDPSRITPYLRQCKVLNPDDEEQVLSDPNLVIRKRKVGVLLDILQRTGHKGYVAFLESLELYYPQLYKKVTGKEPARVFSMIIDASGESGLTQLLMTEVMKLQKKVQDLTALLSSKDDFIKELRVKDSLLRKHQERVQRLKEECEAGSRELKRCKEENYDLAMRLAHQSEEKGAALMRNRDLQLEIDQLKHSLMKAEDDCKVERKHTLKLRHAMEQRPSQELLWELQQEKALLQARVQELEASVQEGKLDRSSPYIQVLEEDWRQALRDHQEQANTIFSLRKDLRQGEARRLRCMEEKEMFELQCLALRKDSKMYKDRIEAILLQMEEVAIERDQAIATREELHAQHARGLQEKDALRKQVRELGEKADELQLQVFQCEAQLLAVEGRLRRQQLETLVLSSDLEDGSPRRSQELSLPQDLEDTQLSDKGCLAGGGSPKQPFAALHQEQVLRNPHDAGLSSGEPPEKERRRLKESFENYRRKRALRKMQKGWRQGEEDRENTTGSDNTDTEGS
# B2: Radial spoke head protein 3 homolog (Homo sapiens), Q86UC2 (parent)
# chain: MTVKPAKAASLARNLAKRRRTYLGGAAGRSQEPEVPCAAVLPGKPGDRNCPEFPPPDRTLGCWATDAAPAAGLCGAGSEPSIAPTSCAGNLPSRPPPLLSPLLASRNPCPWHYLHLSGSHNTLAPTCFKAKLHRKRGSQPPDMASALTDRTSRAPSTYTYTSRPRALPCQRSRYRDSLTQPDEEPMHYGNIMYDRRVIRGNTYALQTGPLLGRPDSLELQRQREARKRALARKQAQEQLRPQTPEPVEGRKHVDVQTELYLEEIADRIIEVDMECQTDAFLDRPPTPLFIPAKTGKDVATQILEGELFDFDLEVKPVLEVLVGKTIEQSLLEVMEEEELANLRASQREYEELRNSERAEVQRLEEQERRHREEKERRKKQQWEIMHKHNETSQKIAARAFAQRYLADLLPSVFGSLRDSGYFYDPIERDIEIGFLPWLMNEVEKTMEYSMVGRTVLDMLIREVVEKRLCMYEHGEDTHQSPEPEDEPGGPGAMTESLEASEFLEQSMSQTRELLLDGGYLQRTTYDRRSSQERKFMEERELLGQDEETAMRKSLGEEELS
# partner: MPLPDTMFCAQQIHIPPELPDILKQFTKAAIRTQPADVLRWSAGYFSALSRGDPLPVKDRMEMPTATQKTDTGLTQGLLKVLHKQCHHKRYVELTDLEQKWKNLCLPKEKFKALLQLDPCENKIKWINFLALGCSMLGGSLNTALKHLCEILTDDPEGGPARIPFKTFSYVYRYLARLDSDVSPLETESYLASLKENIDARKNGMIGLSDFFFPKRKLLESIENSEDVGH
# Variants of: B1
# Conditions: with KIAA0408, Q6ZU52
# Sequence of KIAA0408, Q6ZU52 (Q6ZU52 whole entry): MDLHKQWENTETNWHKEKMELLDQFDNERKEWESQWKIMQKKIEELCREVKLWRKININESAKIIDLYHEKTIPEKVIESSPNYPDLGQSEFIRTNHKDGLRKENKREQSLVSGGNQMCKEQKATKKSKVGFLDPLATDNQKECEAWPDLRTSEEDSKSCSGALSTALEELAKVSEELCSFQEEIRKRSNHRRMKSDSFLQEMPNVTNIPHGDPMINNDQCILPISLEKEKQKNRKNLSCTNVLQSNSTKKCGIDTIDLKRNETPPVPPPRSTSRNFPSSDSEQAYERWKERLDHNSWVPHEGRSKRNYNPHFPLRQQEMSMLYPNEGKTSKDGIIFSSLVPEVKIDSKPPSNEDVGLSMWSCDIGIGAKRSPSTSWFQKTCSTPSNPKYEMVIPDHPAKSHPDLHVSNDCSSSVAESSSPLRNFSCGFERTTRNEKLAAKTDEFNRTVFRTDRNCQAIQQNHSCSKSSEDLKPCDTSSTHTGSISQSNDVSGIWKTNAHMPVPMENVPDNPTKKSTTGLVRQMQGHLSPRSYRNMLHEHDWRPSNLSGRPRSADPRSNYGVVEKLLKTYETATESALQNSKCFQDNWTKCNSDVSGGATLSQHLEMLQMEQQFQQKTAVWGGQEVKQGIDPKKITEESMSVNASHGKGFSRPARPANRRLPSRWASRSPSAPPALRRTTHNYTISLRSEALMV
row,Variant,effect of a mutation on the interaction
1,MSDYENDDECWNVLEGFRVTLTSVIDPSRITPYLRQCKVLNPDDEEQVLSDPNLVIRKRKVGVLLDILQRTGHKGYVAFLESLELYYPQLYKKVTGKEPARVFSMIIDASGESGLTQLLMTEVMKLQKKVQDLTALLSSKDDFIKELRVKDSLLRKHQERVQRLKEECEAGSRELKRCKEENYDLAMRLAHQSEEKGAALMRNRDLQLEIDQLKHSLMKAEDDCKVERKHTLKLRHAMEQRPSQELLWELQQEKALLQARVQELEASVQEGKLDRSSPYIQVLEEDWRQALRDHQEQANTIFSLRKDLRQGEARRLRCMEEKEMFELQCLALRKDSKMYKDRIEAILLQMEEVAIERDQAIATREELHAQHARGLQEKDALRKQVRELGEKADELQLQVFQCEAQLLAVEGRLRRQQLETLVLSSDLEDGSPRRSQELSLPQDLEDTQLSDKGCLAGGGSPKQPFAALHQEQVLRNPHDAGLSSGEPPEKERRRLKESFENYRRKRALRKMQKGWRQGEEDRENTTGSDNTDTEGS [S12N],with no effect

# Variants of: B1
# Conditions: with pak5_human PAK5, Q9P286
# Sequence of pak5_human PAK5, Q9P286 (Q9P286 whole entry, looked up): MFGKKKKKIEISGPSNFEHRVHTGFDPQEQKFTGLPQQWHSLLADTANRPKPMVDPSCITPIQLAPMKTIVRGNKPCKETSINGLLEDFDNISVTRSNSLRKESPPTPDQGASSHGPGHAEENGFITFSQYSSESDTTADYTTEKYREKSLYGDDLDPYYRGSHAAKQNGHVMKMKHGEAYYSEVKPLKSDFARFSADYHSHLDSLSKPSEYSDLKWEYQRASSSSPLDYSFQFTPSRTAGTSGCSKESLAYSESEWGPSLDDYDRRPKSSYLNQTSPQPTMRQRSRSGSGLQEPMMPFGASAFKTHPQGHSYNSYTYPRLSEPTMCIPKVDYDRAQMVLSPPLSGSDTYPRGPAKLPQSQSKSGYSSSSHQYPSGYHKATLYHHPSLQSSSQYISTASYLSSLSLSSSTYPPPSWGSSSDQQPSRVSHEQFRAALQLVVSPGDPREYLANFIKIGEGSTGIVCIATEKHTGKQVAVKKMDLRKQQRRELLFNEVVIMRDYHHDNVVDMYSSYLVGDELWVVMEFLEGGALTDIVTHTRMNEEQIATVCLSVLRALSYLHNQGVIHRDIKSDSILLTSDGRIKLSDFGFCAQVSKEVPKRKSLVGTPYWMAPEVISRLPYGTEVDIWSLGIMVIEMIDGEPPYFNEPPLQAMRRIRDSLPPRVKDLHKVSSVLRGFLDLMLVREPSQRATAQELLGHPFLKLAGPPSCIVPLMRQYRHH
row,Variant,effect of a mutation on the interaction
1,MSDYENDDECWSVLEGFRVTLTSVIDPSRITPYLRQCKVLNPDDEEQVLSDPNLVIRKRKVGVLLDILQRTGHKGYVAFLESLELYYPQLYKKVTGKEPARVFSMIIDASGESGLTQLLMTEVMKLQKKVQDLTALLSSKDDFIKELRVKDSLLRKHQERVQRLKEECEAGSRELKRCKEENYDLAMRLAHQSEEKGAALMRNRDLQLEIDQLKHSLMKAEDDCKVERKHTLKLRHAMEQRPSQELLWELQQEKALLQARVQELEASVQEGKLDRSSPYIQVLEEDWRQALRDHQEQANTIFSLRKDLRQGEARRLRCMEEKEMFELQCLALRKDSKMYKDRIEAILLQMEEVAIERDQAIATREELHAQHARGLQEKDALRKQLRELGEKADELQLQVFQCEAQLLAVEGRLRRQQLETLVLSSDLEDGSPRRSQELSLPQDLEDTQLSDKGCLAGGGSPKQPFAALHQEQVLRNPHDAGLSSGEPPEKERRRLKESFENYRRKRALRKMQKGWRQGEEDRENTTGSDNTDTEGS [V385L],with no effect

# Variants of: B1
# Conditions: with zn572_human ZNF572, Q7Z3I7
# Sequence of zn572_human ZNF572, Q7Z3I7 (Q7Z3I7 whole entry): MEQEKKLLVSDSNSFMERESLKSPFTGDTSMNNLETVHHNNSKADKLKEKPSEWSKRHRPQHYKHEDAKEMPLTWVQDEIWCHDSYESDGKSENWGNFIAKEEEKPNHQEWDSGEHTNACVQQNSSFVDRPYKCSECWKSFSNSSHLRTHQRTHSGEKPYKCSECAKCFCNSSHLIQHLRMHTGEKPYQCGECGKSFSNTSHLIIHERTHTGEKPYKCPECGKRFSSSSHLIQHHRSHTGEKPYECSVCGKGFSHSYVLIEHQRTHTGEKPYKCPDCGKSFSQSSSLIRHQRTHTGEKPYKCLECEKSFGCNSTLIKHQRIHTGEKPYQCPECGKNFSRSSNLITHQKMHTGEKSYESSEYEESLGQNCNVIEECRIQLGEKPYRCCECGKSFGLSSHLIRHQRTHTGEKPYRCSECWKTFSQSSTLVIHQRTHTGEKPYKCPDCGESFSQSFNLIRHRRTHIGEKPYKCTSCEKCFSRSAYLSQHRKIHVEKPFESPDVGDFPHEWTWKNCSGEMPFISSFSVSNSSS
row,Variant,effect of a mutation on the interaction
1,MSDYENDDECWSVLEGFRVTLTSVIDPSRITPYLRQCKVLNPDDEEQVLSDPNLVIRKRKVGVLLDILQRTGHKGYVAFLESLELYYPQLYKKVTGKEPARVFSMIIDASGESGLTQLLMTEVMKLQKKVQDLTALLSSKDDFIKELRVKDSLLRKHQERVQRLKEECEAGSRELKRCKEENYDLAMRLAHQSEEKGAALMRNRDLQLEIDQLKHSLMKAEDDCKVERKHTLKLRHAMEQRPSQELLWELQQEKALLQARVQELEASVQEGKLDRSSPYIQVLEEDWRQALRDHQEQANTIFSLRKDLRQGEARRLRCMEEKEMFELQCLALRKDSKMYKDRIEAILLQMEEVAIERDQAIATREELHAQHARGLQEKDALRKQLRELGEKADELQLQVFQCEAQLLAVEGRLRRQQLETLVLSSDLEDGSPRRSQELSLPQDLEDTQLSDKGCLAGGGSPKQPFAALHQEQVLRNPHDAGLSSGEPPEKERRRLKESFENYRRKRALRKMQKGWRQGEEDRENTTGSDNTDTEGS [V385L],disrupting interaction strength

# Variants of: B1
# Conditions: with tri23_human TRIM23, P36406
# Sequence of tri23_human TRIM23, P36406 (P36406 whole entry): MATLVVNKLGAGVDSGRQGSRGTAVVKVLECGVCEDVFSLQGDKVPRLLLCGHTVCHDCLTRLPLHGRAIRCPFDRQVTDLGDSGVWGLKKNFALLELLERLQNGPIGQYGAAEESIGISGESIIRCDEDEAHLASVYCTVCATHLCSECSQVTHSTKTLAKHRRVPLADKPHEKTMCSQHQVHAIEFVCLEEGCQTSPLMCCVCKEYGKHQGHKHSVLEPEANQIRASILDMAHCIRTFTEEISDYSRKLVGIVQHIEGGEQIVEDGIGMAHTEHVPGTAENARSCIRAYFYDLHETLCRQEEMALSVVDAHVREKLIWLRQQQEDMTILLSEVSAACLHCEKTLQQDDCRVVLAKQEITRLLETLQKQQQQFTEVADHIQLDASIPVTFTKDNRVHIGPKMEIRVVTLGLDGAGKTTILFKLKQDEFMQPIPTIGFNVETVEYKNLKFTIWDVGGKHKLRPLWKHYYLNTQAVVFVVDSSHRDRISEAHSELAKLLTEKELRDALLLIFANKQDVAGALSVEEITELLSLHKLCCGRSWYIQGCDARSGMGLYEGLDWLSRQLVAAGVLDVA
row,Variant,effect of a mutation on the interaction
1,MSDYENDDECWSVLEGFRVTLTSVIDPSRITPYLRQCKVLNPDDEEQVLSDPNLVIRKRKVGVLLDILQRTGHKGYVAFLESLELYYPQLYKKVTGKEPARVFSMIIDASGESGLTQLLMTEVMKLQKKVQDLTALLSSKDDFIKELRVKDSLLRKHQERVQRLKEECEAGSHELKRCKEENYDLAMRLAHQSEEKGAALMRNRDLQLEIDQLKHSLMKAEDDCKVERKHTLKLRHAMEQRPSQELLWELQQEKALLQARVQELEASVQEGKLDRSSPYIQVLEEDWRQALRDHQEQANTIFSLRKDLRQGEARRLRCMEEKEMFELQCLALRKDSKMYKDRIEAILLQMEEVAIERDQAIATREELHAQHARGLQEKDALRKQVRELGEKADELQLQVFQCEAQLLAVEGRLRRQQLETLVLSSDLEDGSPRRSQELSLPQDLEDTQLSDKGCLAGGGSPKQPFAALHQEQVLRNPHDAGLSSGEPPEKERRRLKESFENYRRKRALRKMQKGWRQGEEDRENTTGSDNTDTEGS [R173H],with no effect

# Variants of: B1
# Conditions: with KRT19, P08727
# Sequence of KRT19, P08727 (P08727 whole entry): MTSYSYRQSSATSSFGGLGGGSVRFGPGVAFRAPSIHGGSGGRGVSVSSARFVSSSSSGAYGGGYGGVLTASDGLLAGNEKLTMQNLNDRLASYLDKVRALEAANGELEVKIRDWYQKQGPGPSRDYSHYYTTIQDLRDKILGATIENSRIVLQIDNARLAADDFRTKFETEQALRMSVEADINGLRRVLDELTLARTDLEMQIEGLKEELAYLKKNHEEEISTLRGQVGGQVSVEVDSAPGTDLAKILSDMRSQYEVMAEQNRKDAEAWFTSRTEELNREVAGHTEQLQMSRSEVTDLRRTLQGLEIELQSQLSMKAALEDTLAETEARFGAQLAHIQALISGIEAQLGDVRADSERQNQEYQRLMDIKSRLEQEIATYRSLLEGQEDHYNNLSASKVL
row,Variant,effect of a mutation on the interaction
1,MSDYENDDECWSVLEGFRVTLTSVIDPSRITPYLRQCKVLNPDDEEQVLSDPNLVIRKRKVGVLLDILQRTGHKGYVAFLESLELYYPQLYKKVTGKEPARVFSMIIDASGESGLTQLLMTEVMKLQKKVQDLTALLSSKDDFIKELRVKDSLLRKHQERVQRLKEECEAGSHELKRCKEENYDLAMRLAHQSEEKGAALMRNRDLQLEIDQLKHSLMKAEDDCKVERKHTLKLRHAMEQRPSQELLWELQQEKALLQARVQELEASVQEGKLDRSSPYIQVLEEDWRQALRDHQEQANTIFSLRKDLRQGEARRLRCMEEKEMFELQCLALRKDSKMYKDRIEAILLQMEEVAIERDQAIATREELHAQHARGLQEKDALRKQVRELGEKADELQLQVFQCEAQLLAVEGRLRRQQLETLVLSSDLEDGSPRRSQELSLPQDLEDTQLSDKGCLAGGGSPKQPFAALHQEQVLRNPHDAGLSSGEPPEKERRRLKESFENYRRKRALRKMQKGWRQGEEDRENTTGSDNTDTEGS [R173H],with no effect

# Variants of: B2
# Conditions: with rop1l_human ROPN1L
row,Variant,effect of a mutation on the interaction
1,MTVKPAKAASLARNLAKRRRTYLGGAAGRSQEPEVPCAAVLPGKPGDRNCPEFPPPDRTLGCWATDAAPAAGLCGAGSEPSIAPTSCAGNLPSRPPPLLSPLLASRNPCPWHYLHLSGSHNTLAPTCFKAKLHRKRGSQPPDMASALTDRTSRAPSTYTYTSRPRALPCQRSRYRDSLTQPDEEPMHYGNIMYDRRVIRGNTYALQTGPLLGRPDSLELQRQREARKRALARKQAQEQLRPQTPEPVEGRKHVDVQTELYLEEIADRIIEVDMECQTDAFLDRPPTPLFIPAKTGKDVATQILEGELFDFDLEVKPVLEVLVGKTIEQSLLEVMEEEELANLRASQREYEELRNSERAEVQRLEEQERRHREEKERRKKQQWEIMHKHNETSQKIAARAFAQRYLADLLPSVFGSLRDSGYFYDPIERDIEIGFLPWLMNEVEKTMEYSMVGRTVLDMLIREVVEKRLCMYEHGEDTHQSPEPEDEPGGPGAMTESLEASEFLEQSMSQTRELLLDGDYLQRTTYDRRSSQERKFMEERELLGQDEETAMRKSLGEEELS [G518D],with no effect

# Source: IntAct's records for PubMed 31515488
